# Reference: PMC3518436
# Molecular target: beclin 1 (UniProt O88597)
# Experiment: anti-BCL2 IP, beclin 1 blot
# Conditions: sites T69,S70,S84
"binding against the reference (reference: wild-type MEFs, starved)","binding against the reference (reference: wild-type muscle, exercised)",Substance
stronger,–,"BCL2 (from UniProt P10417) BCL2 AAA MEFs, starved"
–,stronger,"BCL2 (from UniProt P10417) BCL2 AAA muscle, exercised"
